Laboratory results reported in paper PMC8256087.

Target: SecYEG(148/298) labeled with Cy3 and Atto647N, embedded in nanodiscs (UniProt P0AGA2)
Test: not stated; ratio of YidC to SecY in nanodiscs prepared with YidC at a concentration equal to that of SecYEG (SI Appendix, Fig. S9A)

B1: YidC (natural protein)
chain: MDSQRNLLVIALLFVSFMIWQAWEQDKNPQPQAQQTTQTTTTAAGSAADQGVPASGQGKLISVKTDVLDLTINTRGGDVEQALLPAYPKELNSTQPFQLLETSPQFIYQAQSGLTGRDGPDNPANGPRPLYNVEKDAYVLAEGQNELQVPMTYTDAAGNTFTKTFVLKRGDYAVNVNYNVQNAGEKPLEISSFGQLKQSITLPPHLDTGSSNFALHTFRGAAYSTPDEKYEKYKFDTIADNENLNISSKGGWVAMLQQYFATAWIPHNDGTNNFYTANLGNGIAAIGYKSQPVLVQPGQTGAMNSTLWVGPEIQDKMAAVAPHLDLTVDYGWLWFISQPLFKLLKWIHSFVGNWGFSIIIITFIVRGIMYPLTKAQYTSMAKMRMLQPKIQAMRERLGDDKQRISQEMMALYKAEKVNPLGGCFPLLIQMPIFLALYYMLMGSVELRQAPFALWIHDLSAQDPYYILPILMGVTMFFIQKMSPTTVTDPMQQKIMTFMPVIFTVFFLWFPSGLVLYYIVSNLVTIIQQQLIYRGLEKRGLHSREKKKS
stoichiometry N: 1 YidC:SecY
